Assay [1] addresses wild-type AbrB of B. subtilis 168 (His6-AbrB) (B. subtilis). Nature of the assay: SEC; analytical gel filtration (FPLC) on Superdex 75 5/150 GL; running buffer condition II: 50 mM HEPES pH 7.5, 300 mM NaCl, 2 mM β-mercaptoethanol with 10% glycerol; 60 µl (100 µg) protein applied; 0.2 ml/min; polymeric forms as % of the areas under the curve of all protein peaks.
Assay [2] has the same target. Nature of the assay: SEC; analytical gel filtration (FPLC) on Superdex 75 5/150 GL; running buffer condition I: 50 mM HEPES pH 7.5, 300 mM NaCl, 2 mM β-mercaptoethanol, no glycerol; 100 µl protein applied; 0.2 ml/min; polymeric forms as % of the areas under the curve of all protein peaks. Background: SEC sorts molecules by how far they enter the pores of the column.
The target in assay [3] is AbrBQ81E (B. subtilis). Put plainly: SEC; analytical gel filtration (FPLC) on Superdex 75 5/150 GL; running buffer condition II: 50 mM HEPES pH 7.5, 300 mM NaCl, 2 mM β-mercaptoethanol with 10% glycerol; 60 µl (100 µg) protein applied; 0.2 ml/min; polymeric forms as % of the areas under the curve of all protein peaks.
For assay [4], the target named is AbrBQ81E (B. subtilis). Put plainly: SEC; analytical gel filtration (FPLC) on Superdex 75 5/150 GL; running buffer condition I: 50 mM HEPES pH 7.5, 300 mM NaCl, 2 mM β-mercaptoethanol, no glycerol; 100 µl protein applied; 0.2 ml/min; polymeric forms as % of the areas under the curve of all protein peaks.
Another assay deals with AbrB K94A (B. subtilis). The description is as above.
Assay [5] concerns the target AbrB K94I (B. subtilis). Put plainly: SEC; analytical gel filtration (FPLC) on Superdex 75 5/150 GL; running buffer condition II: 50 mM HEPES pH 7.5, 300 mM NaCl, 2 mM β-mercaptoethanol with 10% glycerol; 60 µl (100 µg) protein applied; 0.2 ml/min; polymeric forms as % of the areas under the curve of all protein peaks.
Assay [6] concerns the target AbrB K94I (B. subtilis). Put plainly: SEC; analytical gel filtration (FPLC) on Superdex 75 5/150 GL; running buffer condition I: 50 mM HEPES pH 7.5, 300 mM NaCl, 2 mM β-mercaptoethanol, no glycerol; 100 µl protein applied; 0.2 ml/min; polymeric forms as % of the areas under the curve of all protein peaks.
The next assay addresses AbrB E85A (B. subtilis). The assay is described as above.
The target in the next assay is AbrB D62A (B. subtilis). The description is as above.
Assay [7] addresses AbrBR15A (B. subtilis). Put plainly: SEC; analytical gel filtration (FPLC) on Superdex 75 5/150 GL; running buffer condition II: 50 mM HEPES pH 7.5, 300 mM NaCl, 2 mM β-mercaptoethanol with 10% glycerol; 60 µl (100 µg) protein applied; 0.2 ml/min; polymeric forms as % of the areas under the curve of all protein peaks.
In assay [8] the target is AbrBR15A (B. subtilis). Put plainly: SEC; analytical gel filtration (FPLC) on Superdex 75 5/150 GL; running buffer condition I: 50 mM HEPES pH 7.5, 300 mM NaCl, 2 mM β-mercaptoethanol, no glycerol; 100 µl protein applied; 0.2 ml/min; polymeric forms as % of the areas under the curve of all protein peaks.
A further assay deals with AbrB Q89A (B. subtilis). The assay is described as above.
The next assay addresses AbrB Q81A (B. subtilis). The description is as above.
The next assay deals with AbrB K76A (B. subtilis). The description is as above.
Assay [9] addresses AbrBQ81K, identical with the AbrB of B. amyloliquefaciens FZB45 (B. subtilis (with Q81K: B. amyloliquefaciens FZB45)). The assay is described as above.
Assay [10] has as its target AbrB K71A (B. subtilis). Nature of the assay: SEC; analytical gel filtration (FPLC) on Superdex 75 5/150 GL; running buffer condition II: 50 mM HEPES pH 7.5, 300 mM NaCl, 2 mM β-mercaptoethanol with 10% glycerol; 60 µl (100 µg) protein applied; 0.2 ml/min; polymeric forms as % of the areas under the curve of all protein peaks.
Assay [11] concerns the target AbrB K71A (B. subtilis). Nature of the assay: SEC; analytical gel filtration (FPLC) on Superdex 75 5/150 GL; running buffer condition I: 50 mM HEPES pH 7.5, 300 mM NaCl, 2 mM β-mercaptoethanol, no glycerol; 100 µl protein applied; 0.2 ml/min; polymeric forms as % of the areas under the curve of all protein peaks.
For assay [12], the target named is AbrB Q55E (B. subtilis). Put plainly: SEC; analytical gel filtration (FPLC) on Superdex 75 5/150 GL; running buffer condition II: 50 mM HEPES pH 7.5, 300 mM NaCl, 2 mM β-mercaptoethanol with 10% glycerol; 60 µl (100 µg) protein applied; 0.2 ml/min; polymeric forms as % of the areas under the curve of all protein peaks.
Assay [13] has as its target AbrB Q55E (B. subtilis). Nature of the assay: SEC; analytical gel filtration (FPLC) on Superdex 75 5/150 GL; running buffer condition I: 50 mM HEPES pH 7.5, 300 mM NaCl, 2 mM β-mercaptoethanol, no glycerol; 100 µl protein applied; 0.2 ml/min; polymeric forms as % of the areas under the curve of all protein peaks.
Another assay addresses AbrB N88A (B. subtilis). Described as above.
The target in a further assay is AbrB Q55A (B. subtilis). The description is as above.
For assay [14], the target named is AbrB E77A (B. subtilis). Put plainly: SEC; analytical gel filtration (FPLC) on Superdex 75 5/150 GL; running buffer condition II: 50 mM HEPES pH 7.5, 300 mM NaCl, 2 mM β-mercaptoethanol with 10% glycerol; 60 µl (100 µg) protein applied; 0.2 ml/min; polymeric forms as % of the areas under the curve of all protein peaks.
Assay [15] has as its target AbrB E77A (B. subtilis). Nature of the assay: SEC; analytical gel filtration (FPLC) on Superdex 75 5/150 GL; running buffer condition I: 50 mM HEPES pH 7.5, 300 mM NaCl, 2 mM β-mercaptoethanol, no glycerol; 100 µl protein applied; 0.2 ml/min; polymeric forms as % of the areas under the curve of all protein peaks.
The target in the next assay is AbrB N88D (B. subtilis). The assay is described as above.
The target in a further assay is AbrB Q87A (B. subtilis). The description is as above.

One may read the stoichiometry N as a count of units in the complex or per binding partner.

For the substance “wild-type AbrB of B. subtilis 168 (His6-AbrB) (natural protein)”, in [1], the % of the protein (AUC) in the form with n 4.8 is > 95% and the stoichiometry N was determined as 4.8. Further, in assay [2], the % of the protein (AUC) in the form with n 4.1 came to 87% and the % of the protein (AUC) in the form with n 8.2 was found to be 13%.

With AbrBQ81E (natural protein), in the assay with AbrBQ81E (B. subtilis) [3], the % of the protein (AUC) in the form with n 4.1 was > 95% and the stoichiometry N came out at 4.1. In the assay with AbrBQ81E (B. subtilis) [4], this substance showed a % of the protein (AUC) in the form with n 3.9 of 78% and a % of the protein (AUC) in the form with n 8.1 of 22%.

In the assay with AbrB K94A (B. subtilis), AbrB K94A (natural protein) had a % of the protein (AUC) in the form with n 4.1 of 93% and a % of the protein (AUC) in the form with n 8.2 of 7%.

As to AbrB K94I (natural protein), in the assay with AbrB K94I (B. subtilis) [5], the % of the protein (AUC) in the form with n 4.1 was > 95% and the stoichiometry N amounted to 4.1. Also, in the assay with AbrB K94I (B. subtilis) [6], the % of the protein (AUC) in the form with n 4.7 was 65.6%, the % of the protein (AUC) in the form with n 13.6 was found to be 34.4% and the % of the protein in larger polymeric forms was < 30%.

In the case of AbrB E85A (natural protein), in the assay with AbrB E85A (B. subtilis), the % of the protein (AUC) in the form with n 4.0 came out at 98% and the % of the protein (AUC) in the form with n 8.2 worked out at 2%.

In the assay with AbrB D62A (B. subtilis), AbrB D62A (natural protein) yielded a % of the protein (AUC) in the form with n 4.1 of 94% and a % of the protein (AUC) in the form with n 8.2 of 6%.

For the substance AbrBR15A (natural protein), in the assay with AbrBR15A (B. subtilis) [7], the % of the protein (AUC) in the form with n 40.4 worked out at 10% and the % of the protein (AUC) in the forms with 12< n >1 worked out at 90%. Further, in the assay with AbrBR15A (B. subtilis) [8], the % of the protein (AUC) in the form with n 4.1 was 57.5% and the % of the protein (AUC) in the form with n 8.0 was 42.5%.

As to AbrB Q89A (natural protein), in the assay with AbrB Q89A (B. subtilis), the % of the protein (AUC) in the form with n 4.8 is 93% and the % of the protein (AUC) in the form with n 8.1 was 7%.

As to AbrB Q81A (natural protein), in the assay with AbrB Q81A (B. subtilis), the % of the protein (AUC) in the form with n 4.4 was determined as 94% and the % of the protein (AUC) in the form with n 8.5 is 6%.

On to AbrB K76A (natural protein), for which, in the assay with AbrB K76A (B. subtilis), the % of the protein (AUC) in the form with n 4.0 is > 95% and the stoichiometry N was 4.

As to “AbrBQ81K, identical with the AbrB of B. amyloliquefaciens FZB45 (natural protein)”, in assay [9], the % of the protein (AUC) in the form with n 4.0 is > 95% and the stoichiometry N was determined as 4.

For AbrB K71A (natural protein), in the assay with AbrB K71A (B. subtilis) [10], the % of the protein (AUC) in the form with n 3.9 is > 95% and the stoichiometry N came to 3.9. For the same substance, in the assay with AbrB K71A (B. subtilis) [11], the % of the protein (AUC) in the form with n 4.3 is 86% and the % of the protein (AUC) in the form with n 8.5 turned out to be 14%.

For AbrB Q55E (natural protein), in the assay with AbrB Q55E (B. subtilis) [12], the % of the protein (AUC) in the form with n 3.8 was > 95% and the stoichiometry N worked out at 3.8. For the same substance, in the assay with AbrB Q55E (B. subtilis) [13], the % of the protein (AUC) in the form with n 4.3 was 49% and the % of the protein (AUC) in the form with n 12.3 turned out to be 51%.

In the assay with AbrB N88A (B. subtilis), AbrB N88A (natural protein) came in with a % of the protein (AUC) in the form with n 4.5 of 91% and a % of the protein (AUC) in the form with n 8.1 of 9%.

In the assay with AbrB Q55A (B. subtilis), AbrB Q55A (natural protein) gave a % of the protein (AUC) in the form with n 3.9 of 92% and a % of the protein (AUC) in the form with n 8.1 of 8%.

As to AbrB E77A (natural protein), in the assay with AbrB E77A (B. subtilis) [14], the % of the protein (AUC) in the form with n 4.7 came out at 94% and the % of the protein (AUC) in the form with n 55.5 stood at 6%. In addition, in the assay with AbrB E77A (B. subtilis) [15], the % of the protein (AUC) in the form with n 4.1 is 83% and the % of the protein (AUC) in the form with n 8.2 was found to be 17%.

Consider AbrB N88D (natural protein), for which, in the assay with AbrB N88D (B. subtilis), the % of the protein (AUC) in the form with n 4.1 was 93% and the % of the protein (AUC) in the form with n 8.3 came out at 8%.

In the assay with AbrB Q87A (B. subtilis), AbrB Q87A (natural protein) registered a % of the protein (AUC) in the form with n 4.5 of 93% and a % of the protein (AUC) in the form with n 8.1 of 7%.
